Experimental data published in article PMC4552487 (EMBO Reports, 2015).
Numbering of substitutions follows the chain as printed. Numbers in names are those of the source. Blank lines part the entries; values can stand above or below the binder they belong to.

How the values were obtained:
Conditions in all cases: both partners purified
[1] = biological target: T1, Parkin (80-465)-Biotin, wild type (UniProt O60260 80-465, biotin (position not given)); experiment: AlphaScreen or HTRF; GST-Ubl (1-76) on glutathione acceptor beads and Parkin (80-465)-biotin (WT or H302A) on streptavidin donor beads, 10 nM each; inhibitor proteins in three-fold 10-point dilutions; PBS + 0.1% BSA + 0.1% Triton X-100; RT
T1 sequence (looked up): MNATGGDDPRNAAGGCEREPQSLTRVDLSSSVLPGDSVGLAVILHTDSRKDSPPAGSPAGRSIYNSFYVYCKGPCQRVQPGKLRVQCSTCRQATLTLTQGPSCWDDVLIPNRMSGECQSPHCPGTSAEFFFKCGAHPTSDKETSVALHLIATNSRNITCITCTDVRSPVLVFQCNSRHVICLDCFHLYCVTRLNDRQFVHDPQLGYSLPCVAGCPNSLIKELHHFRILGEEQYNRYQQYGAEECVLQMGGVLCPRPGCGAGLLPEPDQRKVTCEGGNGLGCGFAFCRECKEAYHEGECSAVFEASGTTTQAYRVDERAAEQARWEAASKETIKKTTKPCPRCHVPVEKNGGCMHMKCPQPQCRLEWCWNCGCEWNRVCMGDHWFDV

[2] = biological target: Ser65-phosphorylated ubiquitin (ubiquitin^Phospho-Ser65) (bovine, UniProt P0CG53 1-76, phosphoserine at 65); experiment: ITC; ubiquitin^PhosSer65 in the syringe titrated into 50 μM wild-type or mutant Parkin in the cell; 50 mM HEPES pH 8.0, 150 mM NaCl, 500 μM TCEP; 20°C; single binding site model
[3] = biological target: Ser65-phosphorylated Dac-ubiquitin (Dac-ubiquitin^PhosSer65) (UniProt P0CG47 1-76, phosphoserine at 65 of ubiquitin); experiment: SEC; Superdex 200 Increase 10/300 GL; 50 mM Tris pH 7.5, 150 mM NaCl; 100 μg of each protein, mixtures incubated for 30 min before chromatography

binding result [1]: binds
B1: GST-Ubl (Parkin Ubl domain, residues 1-76) (domain or fragment, UniProt O60260 1-76, looked up)
chain: MIVFVRFNSSHGFPVEVDSDTSIFQLKEVVAKRQGVPADQLRVIFAGKELRNDWTVQNCDLDQQSIVHIVQRPWRK

Kd [2]: ~7 µM
B2: full-length Parkin Lys151Ala (K151A) mutant, untagged (enzyme, UniProt O60260 1-465, looked up)
chain: MIVFVRFNSSHGFPVEVDSDTSIFQLKEVVAKRQGVPADQLRVIFAGKELRNDWTVQNCDLDQQSIVHIVQRPWRKGQEMNATGGDDPRNAAGGCEREPQSLTRVDLSSSVLPGDSVGLAVILHTDSRKDSPPAGSPAGRSIYNSFYVYCAGPCQRVQPGKLRVQCSTCRQATLTLTQGPSCWDDVLIPNRMSGECQSPHCPGTSAEFFFKCGAHPTSDKETSVALHLIATNSRNITCITCTDVRSPVLVFQCNSRHVICLDCFHLYCVTRLNDRQFVHDPQLGYSLPCVAGCPNSLIKELHHFRILGEEQYNRYQQYGAEECVLQMGGVLCPRPGCGAGLLPEPDQRKVTCEGGNGLGCGFAFCRECKEAYHEGECSAVFEASGTTTQAYRVDERAAEQARWEAASKETIKKTTKPCPRCHVPVEKNGGCMHMKCPQPQCRLEWCWNCGCEWNRVCMGDHWFDV

binding result [3]: binds
B3: Parkin 1-465 S65A (enzyme, UniProt O60260 1-465, looked up)
chain: B2 chain with S65A, A151K
